Assay results from patent US20110117658A1 (published 2011).
Bridges are numbered along the chain shown (N, C = ends). Where no end group is shown, it is not given here. [ ]: non-standard residue; d: D form. Gla = N[C@@H](CC(C(=O)O)C(=O)O)C(=O)O

Tests used:
[1] = target: the molecule itself; assay: sedimentation equilibrium, monomer-dimer equilibrium model, in the absence of calcium; extrapolated dimer dissociation constant
Text: (§1) The hydroxyapatite lattice binding mode represented by the best solution presupposes that osteocalcin engages hydroxyapatite with the acidic Ca²⁺-coordinating surface as a monomer. In the crystal structure of porcine osteocalcin, however, the five Ca²⁺ ions are sandwiched between two crystallographically related protein molecules. If overly stable, this dimeric state could present an impediment to hydroxyapatite binding. To investigate whether porcine osteocalcin exists as a monomer or dimer in solution, sedimentation equilibrium analysis in the presence and absence of 10 mM CaCl₂ was carried out. In both cases, the sedimentation equilibrium data were best fitted to a monomer-dimer equilibrium model (FIG. 6). […] Theses Kd values are 2-3 orders of magnitude higher than the concentration of osteocalcin in human serum […],³¹ showing that osteocalcin exists as a monomer in vivo.

[2] = target: the molecule itself; assay: sedimentation equilibrium, monomer-dimer equilibrium model, in the presence of 10 mM CaCl2; extrapolated dimer dissociation constant
Text: as §1

B1: porcine osteocalcin (other)
chain: YLDHGLGAPAPYPDPL[Gla]PRR[Gla]VC[Gla]LNPDCDELADHIGFQEAYRRFYGIA
modifications: disulfide 23-29; not fully specified
notes: the entries describe its self-association into a dimer; In the crystal only residues 13-49 are ordered (residues 1 to 12 missing from the model); also called pOC; POC13-49 (part seen in the crystal structure)
Kd [1]: 800 µM
Kd [2]: 200 µM
